Measured values: PMC4321732 (Structure (London, England : 1993), 2015)
Blank lines part the entries; values can stand above or below the binder they belong to. *1 amine or outer side, *2 acyl side, *3 side chain or, on linkers, in order; H or OH if unused. Where no end group is shown, it is not given here. [ ]: non-standard residue; d: D form. KCme2 = N-dimethylated aminoethylcysteine, CN(C)CCSC[C@H](N[*:1])C(=O)[*:2]; Me2 = dimethyl group on the Lys side-chain amine

What was measured:
[1] = target: T1, tandem Tudor domain (TTD) of human 53BP1 (human, UniProt Q12888 1484-1603); experiment: NMR titration
T1 sequence (Q12888 1484-1603): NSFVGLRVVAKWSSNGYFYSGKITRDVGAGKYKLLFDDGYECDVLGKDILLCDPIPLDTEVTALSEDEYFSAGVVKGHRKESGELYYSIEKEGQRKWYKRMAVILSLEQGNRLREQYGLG

[2] = target: T1, tandem Tudor domain (TTD) of human 53BP1; experiment: solution NMR structure

B1: p53K382me2 peptide (residues S376-T387 of p53) (peptide, UniProt P04637 376-387, looked up)
peptide: STSRHKK(Me2)LMFKT
- binding result [1]: binds

B2: p53KC382me2 peptide (recombinant, dimethyllysine analogue at 382) (peptide)
peptide: GHMSTSRHKCLMFKT
modifications: not fully specified (residue 10)
- binding result [1]: binds

B3: p53K381GKC382me2 peptide (peptide)
peptide: GHMSTSRHGCLMFKT
modifications: not fully specified (residue 10)
- binding result [1]: binds

B4: p53R379GKC382me2 peptide (peptide)
peptide: GHMSTSGHKCLMFKT
modifications: not fully specified (residue 10)
- binding result [1]: binds

B5: p53H380GKC382me2 peptide (peptide)
peptide: GHMSTSRGKCLMFKT
modifications: not fully specified (residue 10)
- binding result [1]: binds

B8: p53KC370me2 peptide (recombinant, dimethyllysine analogue at 370) (peptide)
peptide: GHMRAHSSHLCSKKGQST
modifications: not fully specified (residue 11)
- binding result [1]: binds

Now from value to binder:

- binding result [1]: binds
B6: p53KC382me2L383G peptide (peptide)
peptide: GHMSTSRHKCGMFKT
modifications: not fully specified (residue 10)

- binding result [1]: binds
B7: p53KC382me2F385G peptide (peptide)
peptide: GHMSTSRHKCLMGKT
modifications: not fully specified (residue 10)

- binding result [1]: binds
B9: p53H368GKC370me2 peptide (peptide)
peptide: GHMRAHSSGLCSKKGQST
modifications: not fully specified (residue 11)

- binding result [1]: binds
B10: p53KC370me2K372G peptide (peptide)
peptide: GHMRAHSSHLCSGKGQST
modifications: not fully specified (residue 11)

- binding result [1]: binds
B11: p53KC370me2K373G peptide (peptide)
peptide: GHMRAHSSHLCSKGGQST
modifications: not fully specified (residue 11)

- binding result [1]: binds
B12: p53H365GKC370me2 peptide (peptide)
peptide: GHMRAGSSHL[KCme2]SKKGQST

- binding result [1]: binds
B13: p53L369GKC370me2 peptide (peptide)
peptide: GHMRAHSSHGCSKKGQST
modifications: not fully specified (residue 11)

- binding result [1]: binds
B14: p53K370me2K382me2 peptide (residues S366-K386) (peptide, UniProt P04637 366-386, looked up)
peptide: SSHLKSKKGQSTSRHKKLMFK
modifications: dimethyllysine at 370; dimethyllysine at 382

- binding result [2]: binds
B15: p53K370me2 peptide (residues R363-T377 of p53) (peptide, UniProt P04637 363-377, looked up)
peptide: RAHSSHLK(Me2)SKKGQST
